Test results as given in article PMC4672880.

Target: GCNt stabilized pre-fusion soluble version of the NiV-F glycoprotein (NiV-sFGCNt) (Nipah virus) (UniProt Q9IH63)
Assay: crystal structure

Question: With “GCNt stabilized pre-fusion soluble version of the NiV-F glycoprotein (NiV-sFGCNt) (from UniProt Q9IH63 27-488) (domain or fragment)” as the substance, how does the stoichiometry N read?
Answer: 3
